Starred links: 1 amine or outer side, 2 acyl side, 3 side chain; linkers in the order of their positions; H or OH if unused. Non-standard residues stand in square brackets, D forms with d. Primed or numbered codes have the meaning given here. No end group written: not given here. Asuha″ = L-2-amino-8-(hydroxyamino)-8-oxooctanoic acid, O=C(CCCCC[C@H](N[*:1])C(=O)[*:2])NO
Molecular target: T1, HDAC6 (histone deacetylase 6) (human, UniProt Q9UBN7 1-1215)
T1 construct: HDAC6, human, full length; source: bought: BPS Bioscience, cat. #50056
T1 sequence (looked up): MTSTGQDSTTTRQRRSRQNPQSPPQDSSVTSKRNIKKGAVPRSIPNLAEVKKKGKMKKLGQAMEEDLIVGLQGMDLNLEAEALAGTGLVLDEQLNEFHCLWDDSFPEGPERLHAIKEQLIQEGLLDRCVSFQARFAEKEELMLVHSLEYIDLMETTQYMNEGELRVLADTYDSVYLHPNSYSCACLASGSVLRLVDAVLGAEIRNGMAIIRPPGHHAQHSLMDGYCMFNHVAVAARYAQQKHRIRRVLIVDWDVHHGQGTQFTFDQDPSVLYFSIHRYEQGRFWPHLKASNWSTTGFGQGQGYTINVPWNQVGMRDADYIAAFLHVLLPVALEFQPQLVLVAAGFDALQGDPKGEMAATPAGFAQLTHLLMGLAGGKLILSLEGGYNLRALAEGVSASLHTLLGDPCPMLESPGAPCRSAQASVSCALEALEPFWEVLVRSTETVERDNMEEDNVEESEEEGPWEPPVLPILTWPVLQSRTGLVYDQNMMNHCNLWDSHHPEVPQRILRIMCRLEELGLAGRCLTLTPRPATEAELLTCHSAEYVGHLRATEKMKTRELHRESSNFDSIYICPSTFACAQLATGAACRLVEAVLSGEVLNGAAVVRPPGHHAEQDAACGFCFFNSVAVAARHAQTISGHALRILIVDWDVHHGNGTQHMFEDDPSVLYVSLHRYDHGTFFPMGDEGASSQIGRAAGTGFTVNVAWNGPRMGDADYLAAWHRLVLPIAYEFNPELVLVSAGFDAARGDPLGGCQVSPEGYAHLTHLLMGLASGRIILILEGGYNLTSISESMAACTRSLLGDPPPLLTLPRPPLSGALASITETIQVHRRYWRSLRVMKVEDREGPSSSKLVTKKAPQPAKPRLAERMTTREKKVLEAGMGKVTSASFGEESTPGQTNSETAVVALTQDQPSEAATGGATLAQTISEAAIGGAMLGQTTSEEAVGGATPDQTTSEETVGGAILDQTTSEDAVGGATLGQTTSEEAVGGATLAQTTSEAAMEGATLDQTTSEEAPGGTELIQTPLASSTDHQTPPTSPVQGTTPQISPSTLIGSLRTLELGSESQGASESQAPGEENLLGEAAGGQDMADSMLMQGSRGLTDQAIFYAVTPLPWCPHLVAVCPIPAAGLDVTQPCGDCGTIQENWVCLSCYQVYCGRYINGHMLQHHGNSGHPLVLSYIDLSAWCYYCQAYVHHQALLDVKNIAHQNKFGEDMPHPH
Assay: fluorogenic enzyme inhibition assay; peptide in 5-fold dilution series with enzyme and fluorogenic substrate (Ac-Leu-Gly-Lys(Ac)-AMC or Ac-Leu-Gly-Lys(Tfa)-AMC), HEPES buffer pH 7.4, 30 min, 37 °C, trypsin development; Ki by the Cheng-Prusoff equation
Details: both partners purified

KGGKGLG[Asuha″]GGAKRHR [peptide 1a (parent H4K12 Asuha peptide)]
Ki: 5.31 ± 0.03 nM

Source: publication PMC7782793, “Hydroxamic acid-modified peptide microarrays for profiling isozyme-selective interactions and inhibition of histone deacetylases” (Nature Communications, 2021)
